According to a protein production outcome set (Wang et al. 2014):

Test: label from the status in PepcDB records

Sequence	protein production
MDKILEILKDFGIVELRPPQKKALERGLLDKNKNFLISIPTASGKTLIGEMALINHLLDGNKNPTNKKGIFIVPLKALASEKYEEFKSKYERYGLRIALSIGDYDEDEDLSKYHLIITTAEKLDSLWRHKIDWINDVSVVVVDEIHLINDETRGGTLEILLTKLKEFNVQIIGLSATIGNPDELAEWLNAELIVDDWRPVELKKGIYKNEAIEFINGEIREIKAVDNNDIYNLVVDCVKEGGCCLVFCNTKRNAVNEAKKLNLKKFLTEEEKIRLKEIAEEILSILEPPTEMCKTLAECILNGSAFHHAGLTYQHRKIVEDAFRKRLIKVICCTPTLCLNANTEILQESGFRKITELNKDEKVFALCGKEIKPVDGWKVHKTPQHEYNIVVKTVNGLEITTTPNHIFLVKENGSLKEKEAKDLKVGDYVATVDRIRVKEKDIDLSNGDLYFIGYFIGDGYTGVIEKNTLKATPDLAFNPKYPPNFDDSELHKKYFLKCRISKGVAHYIYSKKLRKIFNKLNMLTKDNKNIDAFCNLPLDKLAYLIAGLFDSDGYIYLNRKNIEFYSISEKLVEQLQFVLLRFGIHSSIRKKKTKTMVSPTNGKEYKCKDIYVLTIRDFMSIKRFYENIPLRHEEKRRKLEEIIKNKEIGQIPSEFVALRFTPIAKIWCDCGFSVDLTMFKPRTKRQRELNKKRVKLLFELLDGKKLITNYKEYYSKRKNPYFDFIVREKINGNNYYSLNEKGRVLMSLLNKHIKDKENLEEMYNFLVNLEKCPICGKPIHKEMRYSWKKECYDGDIYWDRIKEIKKIKVNDKYAYDIELPDDGSNSHYIVANGFIVHNSAGLNLPCRRAIVKDLTRFTNKGMRYIPIMEIQQCIGRAGRPGLDPYGEGIIVAKNDRDYLRAYQALTQKPEPIYSKLSNQAVLRTQLLGLIATGEIRDEYDLEWFIRNTFYAHQYGNLREVAKNINEVIRFLEENEFIIDFMPTELGKRVSELYIDPLSAKFIIDGLEEMENEEEIYYLYLISKTLEMMPNLRVYNSEELNLIDEMDSLGIKSFEIEDLEAFKTAKMLYDWINEVPEDEILKRYKIEPGILRYKVENAVWIMHALKEIAKLIGKSSDIPEKLEIRLEYGAKEDIIELLSIKYIGRVRARKLYNAGIRSIEDIINNPSKVASIIGEKIAKKILDELGVKFGQQKLSF	failed
MTGRLVLAATPMGDVGDASPRLRTALGTADVVAAEDTRRTKALASALDVTITGKVVSFYDQVETARLPALVADVASGKTVLLVTDAGMPSVSDPGYRLVSACVAEDLAVTCLPG	failed
MEIFFTILIMTLVVSLSGVVTRVMPFQIPLPLMQIAIGALLAWPTFGLHVEFDPELFLVLFIPPLLFADGWKTPTREFLEHGREIFGLALALVVVTVVGIGFLIYWVVPGIPLIPAFALAAVLSPTDAVALSGIVGEGRIPKKIMGILQGEALMNDASGLVSLKFAVAVAMGTMIFTVGGATVEFMKVAIGGILAGFVVSWLYGRSLRFLSRWGGDEPATQIVLLFLLPFASYLIAEHIGVSGILAAVAAGMTITRSGVMRRAPLAMRLRANSTWAMLEFVFNGMVFLLLGLQLPGILETSLMAAEIDPNVEIWMLFTNIILIYAALMLVRFGWLWTMKKFSNRFLKKKPMEFGSWTTREILIASFAGVRGAITLAGVLSIPLLLPDGNVFPARYELVFLAAGVILFSLFVGVVMLPILLQHIEVADHSQQLKEERIARAATAEVAIVAIQKMEERLAADTEENIDNQLLTEVSSRVIGNLRRRADGRNDVESSVQEENLERRFRLAALRSERAELYHLRATREISNETLQKLLHDLDLLEALLIEENQ	failed
MATCIWLRSCGARRLGSTFPGCRLRPRAGGLVPASGPAPGPAQLRCYAGRLAGLSAALLRTDSFVGGRWLPAAATFPVQDPASGAALGMVADCGVREARAAVRAAYEAFCRWREVSAKERSSLLRKWYNLMIQNKDDLARIITAESGKPLKEAHGEILYSAFFLEWFSEEARRVYGDIIHTPAKDRRALVLKQPIGVAAVITPWNFPSAMITRKVGAALAAGCTVVVKPAEDTPFSALALAELASQAGIPSGVYNVIPCSRKNAKEVGEAICTDPLVSKISFTGSTTTGKILLHHAANSVKRVSMELGGLAPFIVFDSANVDQAVAGAMASKFRNTGQTCVCSNQFLVQRGIHDAFVKAFAEAMKKNLRVGNGFEEGTTQGPLINEKAVEKVEKQVNDAVSKGATVVTGGKRHQLGKNFFEPTLLCNVTQDMLCTHEETFGPLAPVIKFDTEEEAIAIANAADVGLAGYFYSQDPAQIWRVAEQLEVGMVGVNEGLISSVECPFGGVKQSGLGREGSKYGIDEYLELKYVCYGGL	failed
DTPEPYSEQDLWDWLRNSTDLQEPRPRAKRRPIVKTGKFKKMFGWGDFHSNIKTVKLNLLITGKIVDHGNGTFSVYFRHNSTGQGNVSVSLVPPTKIVEFDLAQQTVIDAKDSKSFNCRIEYEKVDKATKNTLCNYDPSKTCYQEQTQSHVSWLCSKPFKVICIYISFYSTDYKLVQKVCPDYNYHSDTPYFPSG	failed
MPGSALLSLQQELRRGFEALKAAKDTFDGGHAECQELVSSLGNLAPQLKALKQVQISETPLSGFPCLQQRLHYKLSLAVDALLAKLAEKMAALQKVWDAFAQQVFTVVQLYEKNTDALDISVCVSRSAVCPSVSDMLEWLQDADRYYRLQLMQSRLLLQTLTPTDLTSMETAPNRWRSVRSARQEERIADALCQVSIFLETE	failed
MDTPILIPTDMNRIPFFYLLQISDPLFPIGGFTQSYGLETYVQKGIVHDAETSKKYLESYLLNSFLYNDLLAVRLSWEYTQKGNLNKVLELSEVFSASKAPRELRAANEKLGRRFIKILEFVLGENEMFCEMYEKVGRGSVEVSYPVMYGFCTNLLNIGKKEALSAVTYSAASSIINNCAKLVPISQNEGQKILFNAHGIFRRLLERVEELDEEYLGSCCFGFDLRAMQHERLYTRLYIS	failed
MESTKSYDIPILRNVSRSFSVHYRDYLQRCGIFVPKEGNSSGPDAYVVFHNGQTRYVVGFSFKFYHKSEFSKRNIEEEAKKFFKGVVSVLNDESFSSVQLRFQFVMVVCTSYGRSVVFSSEEQNIVEDASYLVTEHSSGSTLNESSRSCLQLVIVSQRNLEMYLGRDNVETLRKIGEASREEFSKDFSVWCETVFESMSNEYVSPLEQSNVTLRVARNIRPRTNEENRMQIEELQTAMKVERSVAASSSLSSSFDWNTFLREYCGLSEEDVAYCLPKVEDIDMDELPAVTKEILRDLGIDKPALRLKIRSSIRSYLANER	not failed
NKYNKIANELIKIIGEDNIISITHCATRLRVMVKDREIINDKKVEKVDEVKGVFFTSGQYQIILGTGIVNKVYAEVEKMGLKTLSKKEQDELVKNNE	not failed
MFLSVVTVAFRNYEGVVKTWRSLRNLARDPGLSFEWIVVDGGSEDGTREFLQKRHGEFNLRFISEKDRGIYDAMNKGIALAQGRYTLFLNSGDAFHDDAALFVRQLARQKGEAMYIGDALLDFGGGHKIRRKAKPGYYIYHSLPASHQAIFFPTAALKKYPYDLQYHVSSDYALAARLYKAGYPFRRINGLVSEFSMGGVSTSNNLELCQDAKNVQRKILRVPGFWAQLSYLLRLKTTGKTKARYNKVLEHHHHHH	failed
YNPWRNPQNALERRNIVLRLMLEHKMIGDELYQLLSQRPLGVQKKGQISRKYPAFIQTLQADLRRKLGEHKISSLLGA	failed
MNEQIPHDKSLDNSLTLLKEGYLFIKNRTERYNSDLFQARLLGKNFICMTGAEAAKVFYDTDRFQRQNALPKRVQKSLFGVNAIQGMDGSAHIHRKMLFLSLMTPPHQKRLAELMTEEWKAAVTRWEKADEVVLFEEAKEILCRVACYWAGVPLKETEVKERADDFIDMVDAFGAVGPRHWKGRRARPRAEEWIEVMIEDARAGLLKTTSGTALHEMAFHTQEDGSQLDSRMAAIELINVLRPIVAISYFLVFSALALHEHPKYKEWLRSGNSREREMFVQEVRRYYPFGPFLGALVKKDFVWNNCEFKKGTSVLLDLYGTNHDPRLWDHPDEFRPERFAEREENLFDMIPQGGGHAEKGHRCPGEGITIEVMKASLDFLVHQIEYDVPEQSLHYSLARMPSLPESGFVMSGIRRKS	not failed
AANPDIMYRLLIQSVVDYAIYLLTPEGIVANWNPGAQRAKGYRAEEIVGQHYSLFYTDAERAAGLPAFNLEQARSTGRFEETGARLRKDGTAFHAHVVIEAVYDDAGQLVGFAKVTRDISERHRQELELLQAKELAEQYSQEMAKLSQFLDSVIANIP	failed
MVNPIVVAAKQGQWQLVQEYLFAAASDQVNQRDERGLTVLMYAVASLEMTTVKQLLQAGADPNRSRPPHGITPLMLLAGLQSNPNNPEKNPVQQAIAAMLMEFGAEVNQGNDDGTTALMMAAYRNNLPLVETLLAGGARAKIQDQQGTTALEWAIKQQNLSMVRKLIEHHAPLDLSDGDGNLPLTLAIKTGDRVIVDYLLQAGAPWDQNGWFTAVEEGNVDQVKAFIQGGYPLTQAGDGGDTALHIACLEGYQSMVTILLEKGPKDMVNAVNQAGDTALHLAIAQGHVEIVTQLLNAGADGNFSSNGEPPLLTALTATHGNAQTQAVMVNALGRAGVDLDQTLWEGKTPLMLAAMANLAAVITTIANYSVQVNRGDPNGSTALMWACHRGHGAAVEALLTNFPALDLNLKNQGGQTALDLARLNHHGAIVALLESYISRSA	failed
MSMVGAIILSIIIGIAAFFIHPLLYIGLALMGLIGWQRVRREREHFHTRVLRIRADYVVPFLPGLIAGSLLSLVTIVIGLTVSIDWLWLLLIVYLLTIVTMNIRWISPAYVGAFMIGVVLLAPFVTTGWPWFDERLQSASQIPVLVIMYLTVLLLSAEGMLIAKRGGSFSSPVVVRSKRGKWVGFHRVKRLWLLPVVLFIPEGAIPTFSFWPILTVAGVSLQPLVVPFLIGTDFKIWSSLPKVVSRKVGNQVLGLALTLALIVCITWYVPWLSVLFAIVAIVGREGIHLMAKIKDRSSTSLFTNQGTGCKVLGILPGSPAEKMGIKIGETILRVNGKMVNNEYSFYEALQENSAFCRLEVIDKAGEVRFAQGALYDGEHHQLGVLLVKEDRELQDSVI	failed
MSSDKTLNVKATGIIALAVMCSRVLGLIREVLFNALFGSASMGIFLIAFRAPNLLRDLFAEGALSVSFITVFSKKIETEGEKSAWQLASKMLTLTSVFMSILCLFGIIFAKYLIFILAPGFSVKDAETTIFLTQLMFPFILLVSLAAIVMGMLNSKNVFGMPALASSFFNIGSILGGALCGWFIDPSFGERALIGLAIGTVIGGLLQLGVQFPSLRKVGFYFKPNFHWYDSGVRNTLILTIPAVIAASAVQINVLINSGFASYLGKEAVTWLNSAFRLMQFPLGVLGVAIATITLPVVSRLAATNNHSQFGSTLARAIRLAVFLTMPAAVGLWFFATPIISLIYEHGKFHASDSLQTAYALQFYALGLVAYSCIKVLSPAFYAIDKKWTPMIVSFATIILNIILNYFLIFKLSMGHRGLALSTTVSATVNFLVLYVLMTRLHNLQNRYLFNTILRCVLASAILGFMCQSIFAYGADFLYHPSFWIRAVSLAISISFAVLVYLSMCVILRVDEAKSIFMIIRHRLGFPIKFKSKQV	failed
MSLDKVLEDEVVEDTGESQVFNLLNPEFVDFDTCLDPITNELPTSETTKPAGELRREKTPAKKGNSNSSSVDHRFTSASRAFTQKKLDDLKSLFVSLASKSHSNDQYVSYPVFQEYFGLSGSLGERIFDMVTQHRKDDKMTFEDLVIAKMTFEDLVIAKVHT	failed
AVSFTGVSGVKNIVAVTACPTGVAHTFMSAEAIEAYAKKQGWNVKVETRGQVGAGNEITVEEVAAADLVFVAADIDVPLDKFKGKPMYRTSTGLALKKTEQEFDKAFKEAKIF	failed
TEDNIVELDGREWIMTRRQKTRVATNIILLDIPKRIIEKYAPVRKNGHLLPILSNQKMNAYLKEIADLCNIRKPLSFHMARYREFYKHQIINRLYCMSIKGGNEKETSELLYSTLFCHFKEPLFVDCKDSDFFNNMIAIEEL	failed
